Patent US20230272086A1 (CHIA TAI TIANQING PHARMACEUTICAL GROUP, published 2023)

What was measured:
[1] = target: T1, cynomolgus monkey ST2 antigen (Cyno-ST2-his, Sino biological, 90915-C08H) (cynomolgus monkey, UniProt Q01638 19-328 (human entry)); assay: SPR (Biacore T200), Cyno-ST2-his captured by anti-his antibody on CM5, antibody as analyte, 1:1 model
T1 construct: Bought protein; not shown: his tag
T1 chain: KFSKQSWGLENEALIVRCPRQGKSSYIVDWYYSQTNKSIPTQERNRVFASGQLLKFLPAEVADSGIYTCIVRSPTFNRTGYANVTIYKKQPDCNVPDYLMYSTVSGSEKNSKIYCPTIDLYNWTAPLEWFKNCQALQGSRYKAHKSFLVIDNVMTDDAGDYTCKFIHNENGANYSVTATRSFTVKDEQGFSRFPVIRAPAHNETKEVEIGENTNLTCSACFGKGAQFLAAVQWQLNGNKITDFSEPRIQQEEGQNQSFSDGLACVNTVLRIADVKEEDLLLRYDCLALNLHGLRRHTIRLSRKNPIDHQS
Experimental: The reaction signals were detected in real time using a Biacore instrument (Cytiva, BiacoreT200), and then an association-dissociation curve was obtained. After the completion of dissociation in each cycle, the biochip was regenerated with a regeneration solution for the next capture; the procedure was repeated until the affinity of the different antibodies for ST2 was determined. The acquired data were finally analyzed using the GE BIAevaluation software with a 1:1 (Langmuir) binding model to determine the association rate constants ka (kon) and the dissociation rate constants kd (koff), and the dissociation constants KD were given by KD = kd/ka. The determined affinity of the anti-ST2 antibody for human ST2 antigen (hST2-ECD-mFc), cynomolgus monkey ST2 antigen (Cyno-ST2-his, Sino biological, 90915-C08H) and the determined affinity of the anti-ST2 chimeric antibodies for ST2 were shown in Table 5.
The humanized antibodies hz31C81-1.1 (the amino acid sequence of the heavy chain set forth in SEQ ID NO: 75 and the amino acid sequence of the light chain set forth in SEQ ID NO: 81) and hz31C8-1.2 (the amino acid sequence of the heavy chain set forth in SEQ ID NO: 77 and the amino acid sequence of the light chain set forth in SEQ ID NO: 81) were subjected to affinity, binding, blocking and cell function analyses using the methods described in Example 4, Example 5, Example 6, Example 7, Example 8, Example 9 and Example 10. In the present disclosure, “hz” and “xi” denote humanized antibodies and chimeric antibodies, respectively; for example, “hz31C81-1.1” and “hz31C81-1.2” represent humanized 31C81-1.1 and 31C81-1.2 antibodies, and “xi31C8” represents a chimeric 31C8 antibody.

[2] = target: T2, IL1R7/IL-18RAcP (Sino biological, 10176-H08H) (UniProt O95256 20-356); assay: ELISA, plate coated with 2 µg/mL receptor
T2 construct: Bought protein
T2 sequence (looked up): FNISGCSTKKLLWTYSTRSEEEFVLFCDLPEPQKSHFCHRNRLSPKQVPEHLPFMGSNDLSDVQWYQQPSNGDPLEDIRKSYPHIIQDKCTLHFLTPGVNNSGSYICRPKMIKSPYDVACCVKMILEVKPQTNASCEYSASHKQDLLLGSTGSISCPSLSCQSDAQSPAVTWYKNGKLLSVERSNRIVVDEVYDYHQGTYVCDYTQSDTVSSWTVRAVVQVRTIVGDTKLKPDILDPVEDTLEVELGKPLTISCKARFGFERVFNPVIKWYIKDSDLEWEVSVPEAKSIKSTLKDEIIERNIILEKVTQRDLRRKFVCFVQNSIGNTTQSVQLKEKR
Experimental: (§1) The anti-ST2 antibodies were diluted with PBS buffer to a concentration of 1.5 mg/mL. After being treated at 72° C. for 5 min, the samples were assayed by ELISA for their binding activity for an antigen The ELISA procedure is as follows: A 96-well plate was coated with 2 µg/mL hST2-ECD-mFc as the antigen at 100 µL/well and incubated at 4° C. overnight. After the antigen not adsorbed was well washed off, the non-specific binding sites were blocked with a blocking buffer (PBST containing 1% bovine serum albumin). After the plate was washed three times with a washing buffer (PBST, PBS containing 0.05% (v/v) Tween 20), the anti-ST2 antibodies (serially diluted 3-fold from an initial concentration of 1.5 µg/mL to 8 concentrations) were added at 100 µL/well, and the plate was incubated at 37° C. for 1 h. […] After the plate was incubated at room temperature for 5 min, a stop solution (2 N H₂SO₄) was added to stop the reactions. The signals were read at 450 nm using a plate reader (PE, Envision). The data were analyzed using GraphPad Prism5, and the EC₅₀ values were calculated.
(§2) ST2 belongs to the IL1R receptor family. The cross-reactivity of the anti-ST2 antibodies with the IL1R family receptors was determined by ELISA. The IL1R family receptors include IL1R⅟CD121a (Sino biological, 10126-H08H), IL1R2/CD121b (Sino biological, 10111-H08H), IL1R3/IL1RAP (Sino biological, 10121-H08H), IL1R7/IL-18RAcP (Sino biological, 10176-H08H), IL1R8/IL1RAPL1 (Sino biological, 10177-H08H), and IL1R9/IL1RAPL2 (Sino biological, 10156-H08H). ELISA assays were performed using the proteins described above as antigens (2 µg/mL). See Example 13 for the specific ELISA procedure. No binding means that the antibody remains unbound to the antigen when at the highest concentration.

[3] = target: T3, IL1R9/IL1RAPL2 (Sino biological, 10156-H08H) (UniProt Q9NP60 17-354); assay: ELISA, plate coated with 2 µg/mL receptor
T3 construct: Bought protein
T3 sequence (looked up): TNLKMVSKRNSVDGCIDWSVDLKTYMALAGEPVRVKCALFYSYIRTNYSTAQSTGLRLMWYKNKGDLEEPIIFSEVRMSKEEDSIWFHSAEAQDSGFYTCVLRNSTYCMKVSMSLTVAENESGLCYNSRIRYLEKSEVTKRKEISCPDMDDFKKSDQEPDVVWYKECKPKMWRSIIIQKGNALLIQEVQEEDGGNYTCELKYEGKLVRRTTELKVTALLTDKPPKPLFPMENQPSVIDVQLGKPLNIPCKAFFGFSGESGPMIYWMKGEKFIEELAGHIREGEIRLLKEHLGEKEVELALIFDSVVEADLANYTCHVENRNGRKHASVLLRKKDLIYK
Experimental: as §1, §2

| Binder | Kd [1] | binding result [2] | binding result [3] |
| --- | --- | --- | --- |
| RG6149 (antibody Ab2 in CN104334582, prepared in-house) (antibody, human IgG2, kappa, V domains shown, Control anti-ST2 antibody) VH: EVQLVQSGAEVKKPGESLKISCKGSGYSFTNYWIGWVRQMPGKGLEWMGIIYPGNSDTRFSPSFQGQVTISADKSITTAYLQWSSLKASDTAMYYCARHGTSSDYYGLDVWGQGTTVTVSS VL: not shown | 0.069 nM | no binding | no binding |
| GSK3772847 (antibody STLM208 in CN104411333, prepared in-house) (antibody, human IgG2, kappa, V domains shown, Control anti-ST2 antibody) VH: EVQLLESGGGLVQPGGSLRLSCAASGFTFSIYDMIWVRQAPGKGLEWVSSIRGEGGGTYYADSVKGRFTISRDNSKNTLYLQMNSLRAEDTAVYYCARDPWSTEGSFFVLDYWGQGTLVTVSS VL: EIVLTQSPATLSLSPGERATLSCRASQSVDDDLAWYQQKPGQAPRLLIYDASNRATGIPARFSGSGSGTDFTLTISSLEPEDFAVYYCQQYITAPLTFGQGTKVEIKR | 0.0923 nM | – | no binding |
| Chimeric 31C8 (antibody, human IgG2, kappa, V domains shown, also called xi31C8) VH: QVQLQQSGPELVRPGASVTLSCKASGYIFIDSEMHWVKQTPVHGLEWIGAIDPETGDTVYNQKFKGKATLTADKSSSTASMELSSLTSEDSAVYYCTGSTTDYYFAYWGQGTTLTVSS VL: DIVMTQAAFSNPVTLGTSASISCRSSKSLLHSNGIIYLYWYLQKPGQSPQLLIYQMSNLASGVPDRFSSSGSGTDFTLRISRVEAEDVGVYYCAQNLELPFTFGSGTKLEIKR | 1.62 nM | no binding | no binding |
| Humanized 31C8-1.1 (antibody, human IgG2, kappa, V domains shown, also called hz31C8-1.1; hz31C81-1.1) VH: EVQLVQSGAEVKKPGATVKISCKASGYIFIDSEMHWVQQAPGKGLEWMGAIDPETGDTVYAEKFQGRVTITADKSSSTAYMELSSLRSEDTAVYYCTGSTTDYYFAYWGQGTLVTVSS VL: DIQMTQSPSSLSASVGDRVTITCRSSKSLLHSNGIIYLYWYQQKPGKAPKLLIYQLSNLASGVPSRFSSSGSGTDFTLTISSLQPEDFATYYCAQNLELPFTFGQGTKVEIKR | 2.47 nM | no binding | no binding |
| Humanized 31C8-1.2 (antibody, human IgG2, kappa, V domains shown, also called hz31C8-1.2; hz31C81-1.2) VH: QVQLVQSGAKVKKPGATVKISCKASGYIFIDSEMHWVQQAPGKGLEWMGAIDPETGDTVYAKKFKGRVTITADKSSSTAYMELSSLRSEDTAVYYCTGSTTDYYFAYWGQGTLVTVSS VL: DIQMTQSPSSLSASVGDRVTITCRSSKSLLHSNGIIYLYWYQQKPGKAPKLLIYQLSNLASGVPSRFSSSGSGTDFTLTISSLQPEDFATYYCAQNLELPFTFGQGTKVEIKR | 5.27 nM | no binding | no binding |
